The record followed here is patent publication US20160272683A1 (Novo Nordisk, published 2016).

In assay [1] the target is rat calcitonin receptor (rat) (UniProt P32214). Kind of assay: SPA competition vs 125I-calcitonin, membranes with rat CTR (Assay VIII).
Assay [2] deals with rat amylin receptor (rat calcitonin receptor with rat RAMP 3) (rat) (UniProt P32214). Kind of assay: SPA competition vs 125I-rat amylin, membranes with rat CTR + rat RAMP3 (Assay VI).

Numbered stars: 1 amine (or outer) side, 2 acyl side, 3 side chain; on linkers, the order of the positions; unused ones are H or OH. Square brackets hold non-standard residues; d marks the D form. Side chains are listed from the residue outwards. Ends that are not written are not given here. * marks the point of attachment. C20 diacid = O=C(O)CCCCCCCCCCCCCCCCCCC(=O)*; C18 diacid = O=C(O)CCCCCCCCCCCCCCCCC(=O)*; C16 diacid = O=C(O)CCCCCCCCCCCCCCC(=O)*; γGlu = O=C(O)[C@H](CCC(=O)[*:2])N[*:1]; C14 diacid = O=C(O)CCCCCCCCCCCCC(=O)*; AEEA = NCCOCCOCC(=O)O

As usually defined, the IC50 is the concentration needed to halve the response being measured.

As to Ac-ASK([γGlu-C20 diacid])LSTAALGRLSAELHELATLPRTETGSGSP-NH2 [[N-terminal(acetyl), des1, 4K(C20 diacid-gGlu), 30S, 31G]mimylin], the IC50 in assay [1] came out at 0.01 nM; in assay [2] it was 0.046 nM.
The corresponding values for {C18 diacid}-ASELSTAALGRLSAELHELATLPRTETGSGSP-NH2 [[N-terminal(C18 diacid), des1, 30S, 31G]mimylin] are 0.013 nM and 0.063 nM.
As to {C20 diacid-γGlu-AEEA}-ASELSTAALGRLSAELHELATLPRTETGSGSP-NH2 [[N-terminal(C20 diacid-gGlu-OEG), des1, 30S, 31G]mimylin], the IC50 in assay [1] was 0.044 nM; in assay [2], 0.146 nM.
As to Ac-ASELSTAALGRLSAK([γGlu-C20 diacid])LHELATLPRTETGSGSP-NH2 [[N-terminal(acetyl), des1, 16K(C20 diacid-gGlu), 30S, 31G]mimylin], the results for the IC50 in assay [1] and in assay [2] were 0.042 nM and 0.115 nM, respectively.

B1: [N-terminal(C20 diacid-gGlu), des1, 15e, 30S, 31G]mimylin (peptide)
peptide: {C20 diacid-γGlu}-ASELSTAALGRLS[dE]ELHELATLPRTETGSGSP-NH2
SMILES: CC(C)C[C@H](NC(=O)[C@H](C)NC(=O)[C@H](C)NC(=O)[C@@H](NC(=O)[C@H](CO)NC(=O)[C@H](CC(C)C)NC(=O)[C@H](CCC(=O)O)NC(=O)[C@H](CO)NC(=O)[C@H](C)NC(=O)CC[C@H](NC(=O)CCCCCCCCCCCCCCCCCCC(=O)O)C(=O)O)[C@@H](C)O)C(=O)NCC(=O)N[C@@H](CCCNC(=N)N)C(=O)N[C@@H](CC(C)C)C(=O)N[C@@H](CO)C(=O)N[C@H](CCC(=O)O)C(=O)N[C@@H](CCC(=O)O)C(=O)N[C@@H](CC(C)C)C(=O)N[C@@H](Cc1c[nH]cn1)C(=O)N[C@@H](CCC(=O)O)C(=O)N[C@@H](CC(C)C)C(=O)N[C@@H](C)C(=O)N[C@H](C(=O)N[C@@H](CC(C)C)C(=O)N1CCC[C@H]1C(=O)N[C@@H](CCCNC(=N)N)C(=O)N[C@H](C(=O)N[C@@H](CCC(=O)O)C(=O)N[C@H](C(=O)NCC(=O)N[C@@H](CO)C(=O)NCC(=O)N[C@@H](CO)C(=O)N1CCC[C@H]1C(N)=O)[C@@H](C)O)[C@@H](C)O)[C@@H](C)O
As to B1, the IC50 in assay [1] and in assay [2] was 0.017 nM each time.
As to Ac-ASELSTAALGRLSAELHK([γGlu-C20 diacid])LATLPRTETGSGSP-NH2 [[N-terminal(acetyl), des1, 19K(C20 diacid-gGlu), 30S, 31G]mimylin], the IC50 stood at 0.071 nM in assay [1] and 0.684 nM in assay [2].

B2: [N-terminal(C20 diacid-gGlu), des1, 30S, 31G, 33Y]mimylin (peptide)
peptide: {C20 diacid-γGlu}-ASELSTAALGRLSAELHELATLPRTETGSGSY-NH2
SMILES: CC(C)C[C@H](NC(=O)[C@H](C)NC(=O)[C@H](C)NC(=O)[C@@H](NC(=O)[C@H](CO)NC(=O)[C@H](CC(C)C)NC(=O)[C@H](CCC(=O)O)NC(=O)[C@H](CO)NC(=O)[C@H](C)NC(=O)CC[C@H](NC(=O)CCCCCCCCCCCCCCCCCCC(=O)O)C(=O)O)[C@@H](C)O)C(=O)NCC(=O)N[C@@H](CCCNC(=N)N)C(=O)N[C@@H](CC(C)C)C(=O)N[C@@H](CO)C(=O)N[C@@H](C)C(=O)N[C@@H](CCC(=O)O)C(=O)N[C@@H](CC(C)C)C(=O)N[C@@H](Cc1c[nH]cn1)C(=O)N[C@@H](CCC(=O)O)C(=O)N[C@@H](CC(C)C)C(=O)N[C@@H](C)C(=O)N[C@H](C(=O)N[C@@H](CC(C)C)C(=O)N1CCC[C@H]1C(=O)N[C@@H](CCCNC(=N)N)C(=O)N[C@H](C(=O)N[C@@H](CCC(=O)O)C(=O)N[C@H](C(=O)NCC(=O)N[C@@H](CO)C(=O)NCC(=O)N[C@@H](CO)C(=O)N[C@@H](Cc1ccc(O)cc1)C(N)=O)[C@@H](C)O)[C@@H](C)O)[C@@H](C)O
With B2, the half-maximal inhibitory concentration (IC50) in assay [1] was 0.023 nM; in assay [2] it was 0.029 nM.

B3: [des1, 19K(C20 diacid-gGlu), 30S, 31G]mimylin (peptide)
peptide: ASELSTAALGRLSAELHK([γGlu-C20 diacid])LATLPRTETGSGSP-NH2
modifications: N-terminus assumed
SMILES: CC(C)C[C@H](NC(=O)[C@H](C)NC(=O)[C@H](C)NC(=O)[C@@H](NC(=O)[C@H](CO)NC(=O)[C@H](CC(C)C)NC(=O)[C@H](CCC(=O)O)NC(=O)[C@H](CO)NC(=O)[C@H](C)N)[C@@H](C)O)C(=O)NCC(=O)N[C@@H](CCCNC(=N)N)C(=O)N[C@@H](CC(C)C)C(=O)N[C@@H](CO)C(=O)N[C@@H](C)C(=O)N[C@@H](CCC(=O)O)C(=O)N[C@@H](CC(C)C)C(=O)N[C@@H](Cc1c[nH]cn1)C(=O)N[C@@H](CCCCNC(=O)CC[C@H](NC(=O)CCCCCCCCCCCCCCCCCCC(=O)O)C(=O)O)C(=O)N[C@@H](CC(C)C)C(=O)N[C@@H](C)C(=O)N[C@H](C(=O)N[C@@H](CC(C)C)C(=O)N1CCC[C@H]1C(=O)N[C@@H](CCCNC(=N)N)C(=O)N[C@H](C(=O)N[C@@H](CCC(=O)O)C(=O)N[C@H](C(=O)NCC(=O)N[C@@H](CO)C(=O)NCC(=O)N[C@@H](CO)C(=O)N1CCC[C@H]1C(N)=O)[C@@H](C)O)[C@@H](C)O)[C@@H](C)O
As to B3, the IC50 in assay [1] was determined as 0.044 nM; in assay [2] it was 0.455 nM.
In the same order, the values of {C14 diacid-γGlu}-ASELSTAALGRLSAELHELATLPRTETGSGSP-NH2 [[N-terminal(C14 diacid-gGlu), des1, 30S, 31G]mimylin] are 0.017 nM and 0.122 nM.

B4: [N-terminal(C20 diacid-gGlu), des1, 4G, 9V, 15Q, 21Q, 23Y, 30S, 31Q, 32T, 33Y]mimylin (peptide)
peptide: {C20 diacid-γGlu}-ASGLSTAVLGRLSQELHELQTYPRTETGSQTY-NH2
SMILES: CC(C)C[C@H](NC(=O)CNC(=O)[C@H](CO)NC(=O)[C@H](C)NC(=O)CC[C@H](NC(=O)CCCCCCCCCCCCCCCCCCC(=O)O)C(=O)O)C(=O)N[C@@H](CO)C(=O)N[C@H](C(=O)N[C@@H](C)C(=O)N[C@H](C(=O)N[C@@H](CC(C)C)C(=O)NCC(=O)N[C@@H](CCCNC(=N)N)C(=O)N[C@@H](CC(C)C)C(=O)N[C@@H](CO)C(=O)N[C@@H](CCC(N)=O)C(=O)N[C@@H](CCC(=O)O)C(=O)N[C@@H](CC(C)C)C(=O)N[C@@H](Cc1c[nH]cn1)C(=O)N[C@@H](CCC(=O)O)C(=O)N[C@@H](CC(C)C)C(=O)N[C@@H](CCC(N)=O)C(=O)N[C@H](C(=O)N[C@@H](Cc1ccc(O)cc1)C(=O)N1CCC[C@H]1C(=O)N[C@@H](CCCNC(=N)N)C(=O)N[C@H](C(=O)N[C@@H](CCC(=O)O)C(=O)N[C@H](C(=O)NCC(=O)N[C@@H](CO)C(=O)N[C@@H](CCC(N)=O)C(=O)N[C@H](C(=O)N[C@@H](Cc1ccc(O)cc1)C(N)=O)[C@@H](C)O)[C@@H](C)O)[C@@H](C)O)[C@@H](C)O)C(C)C)[C@@H](C)O
As for B4, the IC50 in assay [1] was 0.016 nM; in assay [2] it was 0.053 nM.

B5: [des1, 16K(C20 diacid-gGlu), 30S, 31G]mimylin (peptide)
peptide: ASELSTAALGRLSAK([γGlu-C20 diacid])LHELATLPRTETGSGSP-NH2
modifications: N-terminus assumed
SMILES: CC(C)C[C@H](NC(=O)[C@H](C)NC(=O)[C@H](C)NC(=O)[C@@H](NC(=O)[C@H](CO)NC(=O)[C@H](CC(C)C)NC(=O)[C@H](CCC(=O)O)NC(=O)[C@H](CO)NC(=O)[C@H](C)N)[C@@H](C)O)C(=O)NCC(=O)N[C@@H](CCCNC(=N)N)C(=O)N[C@@H](CC(C)C)C(=O)N[C@@H](CO)C(=O)N[C@@H](C)C(=O)N[C@@H](CCCCNC(=O)CC[C@H](NC(=O)CCCCCCCCCCCCCCCCCCC(=O)O)C(=O)O)C(=O)N[C@@H](CC(C)C)C(=O)N[C@@H](Cc1c[nH]cn1)C(=O)N[C@@H](CCC(=O)O)C(=O)N[C@@H](CC(C)C)C(=O)N[C@@H](C)C(=O)N[C@H](C(=O)N[C@@H](CC(C)C)C(=O)N1CCC[C@H]1C(=O)N[C@@H](CCCNC(=N)N)C(=O)N[C@H](C(=O)N[C@@H](CCC(=O)O)C(=O)N[C@H](C(=O)NCC(=O)N[C@@H](CO)C(=O)NCC(=O)N[C@@H](CO)C(=O)N1CCC[C@H]1C(N)=O)[C@@H](C)O)[C@@H](C)O)[C@@H](C)O
Consider B5, for which the IC50 in assay [1] came to 0.065 nM; in assay [2] it was 1.3 nM.

B6: [N-terminal(C20 diacid-gGlu), des1, 4G, 9V, 12K, 15Q, 21Q, 23Y, 25P, 30S, 31G, 32T, 33Y]mimylin (peptide)
peptide: {C20 diacid-γGlu}-ASGLSTAVLGKLSQELHELQTYPPTETGSGTY-NH2
SMILES: CC(C)C[C@H](NC(=O)CNC(=O)[C@H](CO)NC(=O)[C@H](C)NC(=O)CC[C@H](NC(=O)CCCCCCCCCCCCCCCCCCC(=O)O)C(=O)O)C(=O)N[C@@H](CO)C(=O)N[C@H](C(=O)N[C@@H](C)C(=O)N[C@H](C(=O)N[C@@H](CC(C)C)C(=O)NCC(=O)N[C@@H](CCCCN)C(=O)N[C@@H](CC(C)C)C(=O)N[C@@H](CO)C(=O)N[C@@H](CCC(N)=O)C(=O)N[C@@H](CCC(=O)O)C(=O)N[C@@H](CC(C)C)C(=O)N[C@@H](Cc1c[nH]cn1)C(=O)N[C@@H](CCC(=O)O)C(=O)N[C@@H](CC(C)C)C(=O)N[C@@H](CCC(N)=O)C(=O)N[C@H](C(=O)N[C@@H](Cc1ccc(O)cc1)C(=O)N1CCC[C@H]1C(=O)N1CCC[C@H]1C(=O)N[C@H](C(=O)N[C@@H](CCC(=O)O)C(=O)N[C@H](C(=O)NCC(=O)N[C@@H](CO)C(=O)NCC(=O)N[C@H](C(=O)N[C@@H](Cc1ccc(O)cc1)C(N)=O)[C@@H](C)O)[C@@H](C)O)[C@@H](C)O)[C@@H](C)O)C(C)C)[C@@H](C)O
For B6, the IC50 in assay [1] worked out at 0.246 nM; in assay [2], 0.385 nM.
In the same order, the values of {C16 diacid-γGlu}-ASELSTAALGRLSAELHELATLPRTETGSGSP-NH2 [[N-terminal(C16 diacid-gGlu), des1, 30S, 31G]mimylin] are 0.013 nM and 0.022 nM.
Turning to {C16 diacid}-ASELSTAALGRLSAELHELATLPRTETGSGSP-NH2 [[N-terminal(C16 diacid), des1, 30S, 31G]mimylin], the figures for the IC50 in assay [1] and in assay [2] were 0.011 nM and 0.064 nM, respectively.
